Numbering of substitutions follows the chain as printed.
B1: ZAP122m24 Fab (Fab, V domains shown)
VH: QVQLQESGPGLVKPSETLSLTCTVSGGSISSDFWGWIRQPPGKGLEWIGYISSRGSTNYNPSLKRRVTISVDTSRNQFSLKLSSVTAADTAVYYCARSAGVTAFDFWGQGTLVTVSS
VL: DIQMTQSPSSVSASVGDRVTITCRASQGISSWLAWYQHKPGKAPKLLIYVASSLQSGVPSRFSGSGSGTDFTLTISSLQPEDFATYYCQQANSFPLTFGGGTKVEIK
notes: Fab
B2: ZAP122m7 Fab (Fab, V domains shown)
VH: B1 VH with A103D
VL: B1 VL with S93A
notes: Fab
B3: ZAP122m21 Fab (Fab, V domains shown)
VH: B1 VH with G100A, A103D
VL: B1 VL
notes: Fab
B4: ZAP122m25 Fab (Fab, V domains shown)
VH: B1 VH with A103D, F104A
VL: B1 VL
notes: Fab
B5: ZAP122m11 Fab (Fab, V domains shown)
VH: B1 VH with A103D
VL: B1 VL with T97A
notes: Fab
B6: ZAP122m6 Fab (Fab, V domains shown)
VH: B1 VH with A103D
VL: B1 VL with N92A
notes: Fab
B7: ZAP122m13 Fab (Fab, V domains shown)
VH: B1 VH with F33Y, A103D
VL: B1 VL
notes: Fab
B8: ZAP122m18 Fab (Fab, V domains shown)
VH: B1 VH with R65S, A103D
VL: B1 VL
notes: Fab; also called clone m18
B9: ZAP122m2 Fab (Fab, V domains shown)
VH: B1 VH with R75K, A103D
VL: B1 VL
notes: Fab
B10: ZAP122m15 Fab (Fab, V domains shown)
VH: B1 VH with S52Y, A103D
VL: B1 VL
notes: Fab
B11: ZAP122m27 Fab (Fab, V domains shown)
VH: B1 VH with A103D, F106A
VL: B1 VL
notes: Fab
B12: ZAP122m10 Fab (Fab, V domains shown)
VH: B1 VH with A103D
VL: B1 VL with L96A
notes: Fab
B13: ZAP122m12 Fab (Fab, V domains shown)
VH: B1 VH with D32Y, A103D
VL: B1 VL
notes: Fab
B14: ZAP122m8 Fab (Fab, V domains shown)
VH: B1 VH with A103D
VL: B1 VL with F94A
notes: Fab
B15: ZAP122m17 Fab (Fab, V domains shown)
VH: B1 VH with R54S, A103D
VL: B1 VL
notes: Fab; also called clone m17
B16: ZAP122m22 Fab (Fab, V domains shown)
VH: B1 VH with V101A, A103D
VL: B1 VL
notes: Fab
B17: ZAP122m26 Fab (Fab, V domains shown)
VH: B1 VH with A103D, D105A
VL: B1 VL
notes: Fab
B18: ZAP122m4 Fab (Fab, V domains shown)
VH: B1 VH with A103D
VL: B1 VL with Q89A
notes: Fab
B19: ZAP122m3 Fab (Fab, V domains shown)
VH: B1 VH with A103D
VL: B1 VL with V50A
notes: Fab
B20: ZAP122p2 Fab (Fab, V domains shown)
VH: B1 VH with A103D
VL: B1 VL with N92S
notes: Fab
B21: ZAP122m9 Fab (Fab, V domains shown)
VH: B1 VH with A103D
VL: B1 VL with P95A
notes: Fab
B22: ZAP122m23 Fab (Fab, V domains shown)
VH: B1 VH with T102A, A103D
VL: B1 VL
notes: Fab
B23: ZAP122m20 Fab (Fab, V domains shown)
VH: B1 VH with S98A, A103D
VL: B1 VL
notes: Fab
B24: ZAP122m16 Fab (Fab, V domains shown)
VH: B1 VH with S53Y, A103D
VL: B1 VL
notes: Fab
B25: ZAP122m14 Fab (Fab, V domains shown)
VH: B1 VH with G35S, A103D
VL: B1 VL
notes: Fab
B26: ZAP122m1 Fab (Fab, V domains shown)
VH: B1 VH with A103D
VL: B1 VL with Q37Y
notes: Fab
B27: ZAP122m19 Fab (Fab, V domains shown)
VH: B1 VH with R97A, A103D
VL: B1 VL
notes: Fab
B28: ZAP122p1 Fab (Fab, V domains shown)
VH: B1 VH with A103D
VL: B1 VL with N92Q
notes: Fab
B29: ZAP122m5 Fab (Fab, V domains shown)
VH: B1 VH with A103D
VL: B1 VL with Q90A
notes: Fab
B30: MIZ926 (antibody, human IgG1, V domains shown)
VH: EVQLVESGGGSVKPGGSLKLSCAASGLTFSHYYMYWVRQTPEKRLEWVAIISDGGDYTHYSDSVKGRFTISRDNAKNNLYLQMSSLQSEDTAMYYCAGDYGYGYEGWFAYWGQGTLVTVST
VL: DIVMTQSQKFMSTSVGDRVSVTCKASQNVDTYVAWYQQKPGQSPKALIYSTSYRYSGVPDRFTGSGSGTDFTLTISNVQSEDLAEYFCQQYNSYPWTFGGGTKLEIK
B31: ZAP122 (antibody, human IgG1, V domains shown)
VH: B1 VH with A103D
VL: B1 VL

These binders were tested against T1, Recombinant hIL-21-Fc (AcroBiosystems) (human, UniProt Q9HBE4 30-162) (assay: SPR, Fab on captured rhIL-21-Fc).
T1 construct: bought; also called rhIL-21; not shown: Fc of the bought reagent, not described
T1 sequence (Q9HBE4 30-162): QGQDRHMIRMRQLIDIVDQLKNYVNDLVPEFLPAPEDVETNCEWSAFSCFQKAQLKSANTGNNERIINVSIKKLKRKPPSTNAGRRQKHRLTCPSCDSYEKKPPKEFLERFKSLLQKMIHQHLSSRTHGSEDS

binding result	Kd [nM]	koff [s⁻¹]	kon [M⁻¹ s⁻¹]	Binder
no binding	–	–	–	B1
–	< 0.0258	< 1e-05	387000	B2
–	2.19	0.0011	505000	B3
–	5.6	0.00059	105000	B4
–	0.0404	1.46e-05	363000	B5
–	0.0379	1.43e-05	379000	B6
–	0.0565	1.78e-05	316000	B7
–	0.0463	1.4e-05	302000	B8
–	0.034	1.23e-05	363000	B9
–	< 0.0174	< 1e-05	574000	B10
–	< 0.0242	< 1e-05	414000	B11
–	2.4	0.000613	256000	B12
–	8.83	0.00424	481000	B13
–	9.49	0.00251	264000	B14
–	0.0842	2.81e-05	334000	B15
–	8.73	0.0034	389000	B16
–	3.01	0.000701	233000	B17
–	3.49	0.000253	72400	B18
–	0.251	9.3e-05	370000	B19
–	0.0328	1.14e-05	348000	B20
–	0.249	5.93e-05	238000	B21
–	0.137	3.29e-05	240000	B22
–	0.0435	1.94e-05	446000	B23
–	< 0.0283	< 1e-05	353000	B24
–	1.01	0.000263	260000	B25
–	0.0517	1.91e-05	369000	B26
–	6.08	0.000775	127000	B27
–	0.0386	1.38e-05	357000	B28
–	≤ 0.088	≤ 1e-05	114000	B29

The binders below were run against recombinant human IL-21 (rhIL-21) (human, UniProt Q9HBE4 30-162, limits assumed) (assay: cell-based or functional assay).
recombinant human IL-21 (rhIL-21), sequence (Q9HBE4 30-162 limits assumed): as the sequence (Q9HBE4 30-162) above

% pSTAT3+ Jurkat cells, 0.1 nM rhIL-21 + 0 nM antibody [%]	% pSTAT3+ Jurkat cells, 0.1 nM rhIL-21 + 0.1012 nM antibody [%]	% pSTAT3+ Jurkat cells, 0.1 nM rhIL-21 + 0.1602 nM antibody [%]	% pSTAT3+ Jurkat cells, 0.1 nM rhIL-21 + 0.2536 nM antibody [%]	% pSTAT3+ Jurkat cells, 0.1 nM rhIL-21 + 0.4015 nM antibody [%]	% pSTAT3+ Jurkat cells, 0.1 nM rhIL-21 + 0.6355 nM antibody [%]	% pSTAT3+ Jurkat cells, 0.1 nM rhIL-21 + 1.006 nM antibody [%]	% pSTAT3+ Jurkat cells, 0.1 nM rhIL-21 + 1.5925 nM antibody [%]	% pSTAT3+ Jurkat cells, 0.1 nM rhIL-21 + 2.5209 nM antibody [%]	% pSTAT3+ Jurkat cells, 0.1 nM rhIL-21 + 3.9906 nM antibody [%]	Binder
82.5	75.1	72.4	70.7	69.9	68.5	65.3	64.8	64.5	61.8	B30
82	33.3	33.2	18.2	22.8	33	10.8	9.01	6.78	5.32	B31

Same assay, conditions: not given

% pSTAT3+ Jurkat cells, 0.1 nM rhIL-21 + 6.3171 nM antibody [%]	% pSTAT3+ Jurkat cells, 0.1 nM rhIL-21 + 10 nM antibody [%]	Binder
57.5	57.5	B30
8.64	6.63	B31

— patent publication EP4671273A1 (Anaveon AG, dated 2025)
